US20160243215A1
pKd: −log10 of the molar value.

Legend:
[1] = target: 405C full-length gp160 Env on SHIV (HIV-1 clade C, isolate 405C); assay: cell-based or functional assay
[2] = target: 459C full-length gp160 Env on SHIV (HIV-1 clade C, isolate 459C); assay: cell-based or functional assay
[3] = target: 405C gp140 trimer (405C gp140-foldon, gp140Fd) (HIV-1 clade C, isolate 405C); assay: SPR; 3,500 RU IgG captured on protein A, Env flowed over; 1:1 model
[4] = target: 459C gp140 trimer (459C gp140-foldon, gp140Fd) (HIV-1 clade C, isolate 459C); assay: as above
[5] = target: 939C gp140 trimer (939C gp140-foldon, gp140Fd) (HIV-1 clade C, isolate 939C); assay: as above
[6] = target: 405C gp140 trimer (405C gp140-foldon, gp140Fd) (HIV-1 clade C, isolate 405C); assay: SPR; IgG captured on protein A, Env flowed over; 1:1 model
[7] = target: 459C gp140 trimer (459C gp140-foldon, gp140Fd) (HIV-1 clade C, isolate 459C); assay: as above
[8] = target: 939C gp140 trimer (939C gp140-foldon, gp140Fd) (HIV-1 clade C, isolate 939C); assay: as above
[9] = target: 405C gp120 monomer (HIV-1 clade C, isolate 405C); assay: SPR; IgG captured on protein A, Env flowed over; 1:1 model (monomer rates are rough estimates)
[10] = target: 459C gp120 monomer (HIV-1 clade C, isolate 459C); assay: as above
[11] = target: 405C gp140 trimer (405C gp140-foldon, gp140Fd) (HIV-1 clade C, isolate 405C); assay: SPR; 4,500 RU IgG captured on protein A, Env flowed over
[12] = target: 939C gp140 trimer (939C gp140-foldon, gp140Fd) (HIV-1 clade C, isolate 939C); assay: as above
[13] = target: 405C gp140 trimer (405C gp140-foldon, gp140Fd) (HIV-1 clade C, isolate 405C); assay: SPR; IgG captured on protein A, trimer flowed over
[14] = target: 405C gp120 monomer (HIV-1 clade C, isolate 405C); assay: SPR; IgG captured on protein A, Env flowed over; 1:1 model
[15] = target: 459C gp120 monomer (HIV-1 clade C, isolate 459C); assay: as above
[16] = target: 939C gp120 monomer (HIV-1 clade C, isolate 939C); assay: as above
[17] = target: 405C gp140 trimer (405C gp140-foldon, gp140Fd) (HIV-1 clade C, isolate 405C); assay: SPR (Example 8); IgG captured on protein A, trimer flowed over
[18] = target: 405C gp140 trimer (405C gp140-foldon, gp140Fd) (HIV-1 clade C, isolate 405C); assay: SPR; CD4 coupled to CM5 chip, Env flowed over; 1:1 model
[19] = target: 459C gp120 monomer (HIV-1 clade C, isolate 459C); assay: as above
[20] = target: 459C gp140 trimer (459C gp140-foldon, gp140Fd) (HIV-1 clade C, isolate 459C); assay: as above
[21] = target: 939C gp120 monomer (HIV-1 clade C, isolate 939C); assay: as above
[22] = target: 939C gp140 trimer (939C gp140-foldon, gp140Fd) (HIV-1 clade C, isolate 939C); assay: as above
[23] = target: 405C gp140 trimer (405C gp140-foldon, gp140Fd) (HIV-1 clade C, isolate 405C); assay: SPR; CD4 coupled to CM5 chip, Env flowed over; 1:1 model; 405C gp140 trimer as analyte
[24] = target: 405C gp120 monomer (HIV-1 clade C, isolate 405C); assay: SPR; CD4 coupled to CM5 chip, Env flowed over; 1:1 model; 405C gp120 monomer as analyte
[25] = target: 405C gp140 trimer (405C gp140-foldon, gp140Fd) (HIV-1 clade C, isolate 405C); assay: SPR; 17b IgG captured on protein A, trimer at 1000 nM with against without bound CD4
[26] = target: 459C gp140 trimer (459C gp140-foldon, gp140Fd) (HIV-1 clade C, isolate 459C); assay: as above
[27] = target: 939C gp140 trimer (939C gp140-foldon, gp140Fd) (HIV-1 clade C, isolate 939C); assay: as above

Substance: PGT128 IgG (antibody)
- IC50 Titers (TZM.bl cells, ug/ml) [1]: 45.9 µg/mL
- IC50 Titers (TZM.bl cells, ug/ml) [2]: 0.65 µg/mL

Substance: PG9 IgG (antibody)
- IC50 Titers (TZM.bl cells, ug/ml) [1]: 17.4 µg/mL
- IC50 Titers (TZM.bl cells, ug/ml) [2]: > 50 µg/mL
- pKd [3]: 6.47
- koff [3]: 0.000662 s⁻¹
- kon [3]: 1970 M⁻¹ s⁻¹
- pKd [4]: 6.35
- koff [4]: 0.0032 s⁻¹
- kon [4]: 7150 M⁻¹ s⁻¹
- pKd [5]: 6.80
- koff [5]: 0.00126 s⁻¹
- kon [5]: 8010 M⁻¹ s⁻¹

Substance: PGT126 IgG (antibody)
- pKd [6]: 8.01
- koff [6]: 0.000282 s⁻¹
- kon [6]: 28700 M⁻¹ s⁻¹
- pKd [7]: 8.08
- koff [7]: 0.000243 s⁻¹
- kon [7]: 29500 M⁻¹ s⁻¹
- pKd [8]: 8.18
- koff [8]: 0.000232 s⁻¹
- kon [8]: 35000 M⁻¹ s⁻¹
- pKd [9]: 7.42
- koff [9]: 0.0012 s⁻¹
- kon [9]: 31400 M⁻¹ s⁻¹
- pKd [10]: 7.38
- koff [10]: 0.000592 s⁻¹
- kon [10]: 14800 M⁻¹ s⁻¹

Substance: PG16 IgG (antibody)
- IC50 Titers (TZM.bl cells, ug/ml) [1]: 2.05 µg/mL
- IC50 Titers (TZM.bl cells, ug/ml) [2]: 6.7 µg/mL
- pKd [11]: 5.84
- koff [11]: 0.00151 s⁻¹
- pKd [12]: 5.90
- koff [12]: 0.00286 s⁻¹
- kon [12]: 2410 M⁻¹ s⁻¹

Substance: VRC01 IgG (antibody)
- IC50 Titers (TZM.bl cells, ug/ml) [1]: 13.3 µg/mL
- IC50 Titers (TZM.bl cells, ug/ml) [2]: 11.9 µg/mL
- fold lower magnitude of binding than 459C and 939C trimers [13]: 5 fold
- pKd [14]: 7.45
- koff [14]: 0.000278 s⁻¹
- kon [14]: 7870 M⁻¹ s⁻¹
- pKd [6]: 8.13
- koff [6]: 4.52e-05 s⁻¹
- kon [6]: 6090 M⁻¹ s⁻¹
- pKd [15]: 6.48
- koff [15]: 0.00109 s⁻¹
- kon [15]: 3320 M⁻¹ s⁻¹
- pKd [7]: 8.12
- koff [7]: 4.75e-05 s⁻¹
- kon [7]: 6990 M⁻¹ s⁻¹
- pKd [16]: 7.24
- koff [16]: 0.000249 s⁻¹
- kon [16]: 4350 M⁻¹ s⁻¹
- pKd [8]: 8.45
- koff [8]: 1.55e-05 s⁻¹
- kon [8]: 4400 M⁻¹ s⁻¹
- fold lower magnitude of binding than Env 459C and 939C trimers [17]: 5 fold

Substance: b12 IgG (antibody)
- IC50 Titers (TZM.bl cells, ug/ml) [1]: > 50 µg/mL
- IC50 Titers (TZM.bl cells, ug/ml) [2]: > 50 µg/mL

Substance: Soluble two-domain CD4 (from UniProt P01730 26-208) (receptor)
- koff [18]: 0.000196 s⁻¹
- kon [18]: 15400 M⁻¹ s⁻¹
- pKd [19]: 7.57
- koff [19]: 0.00049 s⁻¹
- kon [19]: 18200 M⁻¹ s⁻¹
- pKd [20]: 8.38
- koff [20]: 9.89e-05 s⁻¹
- kon [20]: 23700 M⁻¹ s⁻¹
- pKd [21]: 7.80
- koff [21]: 0.00031 s⁻¹
- kon [21]: 19500 M⁻¹ s⁻¹
- pKd [22]: 7.90
- koff [22]: 0.000206 s⁻¹
- kon [22]: 16500 M⁻¹ s⁻¹
- pKd [23]: 7.91
- koff [24]: 0.000327 s⁻¹
- kon [24]: 5560 M⁻¹ s⁻¹

Substance: sCD4 (soluble CD4) (from UniProt P01730 26-208) (receptor)
- IC50 Titers (TZM.bl cells, ug/ml) [1]: > 50 µg/mL
- IC50 Titers (TZM.bl cells, ug/ml) [2]: 48.7 µg/mL

Substance: 17b IgG (antibody)
- fold increase in magnitude of binding when the trimer is bound to CD4 [25]: 4 fold
- fold increase in magnitude of binding when the trimer is bound to CD4 [26]: 4 fold
- fold increase in magnitude of binding when the trimer is bound to CD4 [27]: 4 fold

Substance: 2F5 IgG (antibody)
- IC50 Titers (TZM.bl cells, ug/ml) [1]: > 50 µg/mL
- IC50 Titers (TZM.bl cells, ug/ml) [2]: > 50 µg/mL

Substance: 3BNC117 IgG (antibody)
- IC50 Titers (TZM.bl cells, ug/ml) [1]: 4.94 µg/mL
- IC50 Titers (TZM.bl cells, ug/ml) [2]: 5.97 µg/mL
- fold lower magnitude of binding than 459C and 939C trimers [13]: 5 fold
- pKd [14]: 7.07
- koff [14]: 0.00042 s⁻¹
- kon [14]: 4900 M⁻¹ s⁻¹
- pKd [6]: 7.11
- koff [6]: 0.000322 s⁻¹
- kon [6]: 4110 M⁻¹ s⁻¹
- pKd [15]: 7.02
- koff [15]: 0.0005 s⁻¹
- kon [15]: 6130 M⁻¹ s⁻¹
- pKd [7]: 8.91
- koff [7]: 1.04e-05 s⁻¹
- kon [7]: 8500 M⁻¹ s⁻¹
- pKd [16]: 6.76
- koff [16]: 0.000961 s⁻¹
- kon [16]: 6450 M⁻¹ s⁻¹
- pKd [8]: 7.57
- koff [8]: 0.000224 s⁻¹
- kon [8]: 8330 M⁻¹ s⁻¹
- fold lower magnitude of binding than Env 459C and 939C trimers [17]: 5 fold

Substance: 2G12 IgG (antibody)
- IC50 Titers (TZM.bl cells, ug/ml) [1]: > 50 µg/mL
- IC50 Titers (TZM.bl cells, ug/ml) [2]: > 50 µg/mL

Substance: PGT121 IgG (antibody)
- pKd [6]: 7.97
- koff [6]: 0.000104 s⁻¹
- kon [6]: 9780 M⁻¹ s⁻¹
- pKd [7]: 8.25
- koff [7]: 8.73e-05 s⁻¹
- kon [7]: 15700 M⁻¹ s⁻¹
- pKd [8]: 7.59
- koff [8]: 0.00043 s⁻¹
- kon [8]: 16700 M⁻¹ s⁻¹
- pKd [9]: 7.19
- koff [9]: 0.000492 s⁻¹
- kon [9]: 7670 M⁻¹ s⁻¹
- pKd [10]: 6.91
- koff [10]: 0.000824 s⁻¹
- kon [10]: 6720 M⁻¹ s⁻¹

Substance: 4E10 IgG (antibody)
- IC50 Titers (TZM.bl cells, ug/ml) [1]: 18.2 µg/mL
- IC50 Titers (TZM.bl cells, ug/ml) [2]: > 50 µg/mL
